Laboratory results as given in patent publication US8114831B2, “Guanylate cyclase receptor agonists for the treatment of tissue inflammation and carcinogenesis” (Synergy Pharmaceuticals Inc., priority 2001, dated 2012).
Positions of bridges follow the written chain, without caps; N, C: chain ends. No end group written: not given here.

Legend:
[1] = target: T1, guanylate cyclase receptor (Homo sapiens, UniProt P25092); assay: T84 cell-based assay for determining the intracellular levels of cGMP; conditions: for ability to enhance intracellular levels of cGMP (ranking in words): T84 cell-based assay, text summary of Table 4; for cGMP Level (intracellular cGMP level observed in T84 cells): 1 micromolar peptide agonist, 30 minutes
T1 construct: host or cells: T84 human colon carcinoma cells
Description: Cell Culture: Human T84 colon carcinoma cells were obtained from the American Type Culture Collection at passage 52. Cells were grown in a 1:1 mixture of Ham's F-12 medium and Dulbecco's modified Eagle's medium (DMEM) supplemented with 10% fetal bovine serum, 100 U penicillin/ml, and 100 μg/ml streptomycin. The cells were fed fresh medium every third day and split at a confluence of approximately 80%.
(§1) T84 cell-based assay for determining the intracellular levels of cGMP: Peptide analogs were custom synthesized by Multiple Peptide Systems, San Diego, Calif., and by Princeton Biomolecules, Langhorne, Pa. Biological activity of the synthetic peptides was assayed as previously reported (15). Briefly, the confluent monolayers of T-84 cells in 24-well plates were washed twice with 250 μl of DMEM containing 50 mM HEPES (pH 7.4), pre-incubated at 37° C. for 10 min with 250 μl of DMEM containing 50 mM HEPES (pH 7.4) and 1 mM isobutylmethylxanthine (IBMX), followed by incubation with peptide analogs (0.1 nM to 10 μM) for 30 min. The medium was aspirated, and the reaction was terminated by the addition of 3% perchloric acid. Following centrifugation, and neutralization with 0.1 N NaOH, the supernatant was used directly for measurements of cGMP using an ELISA kit (Caymen Chemical, Ann Arbor, Mich.).

[2] = target: T1, guanylate cyclase receptor; assay: as above; conditions: for intracellular production of cGMP at different pH values: pH 5 to 7
[3] = Heat stability: peptide solutions heated at 95° C., then tested for biological activity in the T84 cell-based assay; assay type: physicochemical; conditions: 10 micromolar solution, read-out T84 cell-based assay
Description: as §1
To examine heat stability, 10 micromolar solutions of peptide analogs were heated at 95° C. for up to 90 minutes. At specific times during the treatment, samples were tested for their biological activity in the T84 cell-based assay. […] Based on energy calculations and 3D structure, we expected that the negatively charged carboxyl group of the side chain in position 3 of SEQ ID NO:1 specifically interacts with a positively charged binding site on the receptor. […] At the same time, to ensure efficiency of this particular interaction, an entire system of the long-range electrostatic interactions between ligand and receptor should be well balanced. Since the Glu^2 side chain presents more conformational possibilities compared to the Asp^2 side chain, this balance may be slightly changed in SP302 (double substitution of Asp's for Glu's) compared to SP304 (single substitution of Asp^3 for Glu^3). Indeed, biological activity of SP 304 is the best amongst the analogs evaluated.

T1 sequence (P25092 24-1073): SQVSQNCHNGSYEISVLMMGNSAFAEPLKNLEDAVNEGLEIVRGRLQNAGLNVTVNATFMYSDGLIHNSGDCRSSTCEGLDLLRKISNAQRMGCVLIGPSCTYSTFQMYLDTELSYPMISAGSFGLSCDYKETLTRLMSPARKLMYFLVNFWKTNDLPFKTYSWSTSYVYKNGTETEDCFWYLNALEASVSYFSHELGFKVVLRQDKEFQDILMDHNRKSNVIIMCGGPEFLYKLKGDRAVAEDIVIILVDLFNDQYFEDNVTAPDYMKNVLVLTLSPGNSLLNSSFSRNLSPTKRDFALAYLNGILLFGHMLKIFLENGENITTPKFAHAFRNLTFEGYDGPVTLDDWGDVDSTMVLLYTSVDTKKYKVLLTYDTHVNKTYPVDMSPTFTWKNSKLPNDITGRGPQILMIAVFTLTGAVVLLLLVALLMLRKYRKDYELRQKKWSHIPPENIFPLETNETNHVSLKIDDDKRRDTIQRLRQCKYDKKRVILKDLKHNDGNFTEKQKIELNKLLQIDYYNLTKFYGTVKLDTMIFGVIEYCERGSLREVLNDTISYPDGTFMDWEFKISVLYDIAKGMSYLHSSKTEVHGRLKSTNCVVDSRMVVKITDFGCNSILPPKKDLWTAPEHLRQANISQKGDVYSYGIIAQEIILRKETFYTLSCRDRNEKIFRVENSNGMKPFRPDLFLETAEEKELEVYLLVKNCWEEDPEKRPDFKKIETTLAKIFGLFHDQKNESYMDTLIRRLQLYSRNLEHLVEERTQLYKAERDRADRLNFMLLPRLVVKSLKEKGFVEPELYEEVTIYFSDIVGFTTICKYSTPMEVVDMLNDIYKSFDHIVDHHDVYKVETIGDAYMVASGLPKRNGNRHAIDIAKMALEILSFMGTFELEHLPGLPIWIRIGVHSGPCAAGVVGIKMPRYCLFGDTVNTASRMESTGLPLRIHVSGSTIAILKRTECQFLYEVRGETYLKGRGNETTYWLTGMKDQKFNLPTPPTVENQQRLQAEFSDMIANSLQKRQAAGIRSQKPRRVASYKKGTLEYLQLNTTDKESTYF

Row | ability to enhance intracellular levels of cGMP (ranking in words) [1] | cGMP Level (intracellular cGMP level observed in T84 cells) ([1]; T84 cells) [pmol/well] | enhancement of intracellular cGMP, comparison among peptides ([2]; pH between 6.5 and 7) | intracellular cGMP level in combination with sulindac sulfone ([1]; T84 cells, combination with cGMP dependent phosphodiesterase inhibitor sulindac sulfone) | intracellular cGMP level in combination with Zaprinast ([1]; T84 cells, combination with cGMP dependent phosphodiesterase inhibitor zaprinast) | Substance | intracellular production of cGMP at different pH values [2] | biological activity after heating for 60 minutes [3] | biological activity after heating for 90 minutes, relative to original value [3]
1 | second in effectiveness | 275 |  |  |  | SP 316: 14-residue peptide Glu Cys Glu Leu Cys Val Asn Val Ala Cys Thr Gly Cys Leu, positions 3-16, disulfides 4-12 and 7-15 (ECELCVNVACTGCL; disulfide 2-10, 5-13) |  |  | 
2 | somewhat weaker | 205 |  |  |  | bicyclo[4,12; 7,15]Asn^1-Asp^2-Asp^3-Cys^4-Glu^5-Leu^6-Cys^7-Val^8-Asn^9-Val^10-Ala^11-Cys^12-Thr^13-Gly^14-Cys^15-Leu^16 (NDDCELCVNVACTGCL; disulfide 4-12, 7-15; listed as Homo sapiens) [SP 301, human uroguanylin, parent compound, reference compound] | enhanced intracellular production of cGMP | did not change significantly | about 80%
3 | somewhat weaker | 225 |  |  |  | [Glu^2, Glu^3]-UG (NEECELCVNVACTGCL; ends and bridges not checked; cysteine pairing not given here; UniProt Q16661 97-112, looked up, variant D2E D3E) [SP 302, uroguanylin analog, double substitution of Asp's for Glu's] | enhanced intracellular production of cGMP | did not change significantly | about 80%
4 | somewhat weaker | 195 |  |  |  | [Glu^2]-UG (NEDCELCVNVACTGCL; ends and bridges not checked; cysteine pairing not given here; UniProt Q16661 97-112, looked up, variant D2E) [SP 303, uroguanylin analog with Glu in position 2] | enhanced intracellular production of cGMP | did not change significantly | about 80%

Row | Substance | ability to enhance intracellular levels of cGMP (ranking in words) [1] | cGMP Level (intracellular cGMP level observed in T84 cells) ([1]; T84 cells) [pmol/well] | enhancement of intracellular cGMP, comparison among peptides ([2]; pH between 6.5 and 7) | intracellular cGMP level in combination with sulindac sulfone ([1]; T84 cells, combination with cGMP dependent phosphodiesterase inhibitor sulindac sulfone) | intracellular cGMP level in combination with Zaprinast ([1]; T84 cells, combination with cGMP dependent phosphodiesterase inhibitor zaprinast) | intracellular production of cGMP at different pH values [2] | biological activity after heating for 60 minutes [3] | biological activity after heating for 90 minutes, relative to original value [3]
5 | Asn^1 Asp^2 Glu^3 Cys^4 Glu^5 Leu^6 Cys^7 Val^8 Asn^9 Val^10 Ala^11 Cys^12 Thr^13 Gly^14 Cys^15 Leu^16 (NDECELCVNVACTGCL; disulfide 4-12, 7-15) [SP 304, [Glu^3]-UG, [4,12; 7,15] bicycle with two disulfide linkages] | greatest enhancement of intracellular cGMP | 315 | greatest enhancement | synergistic increases | synergistic increases | enhanced intracellular production of cGMP | did not change significantly | remained unaltered
